In patent publication US20100160220A1:

Legend:
[1] = biological target: PTH1R tagged with HA (human) (UniProt Q03431); experiment: PTH ligand incubated with transfected cells for 15 seconds, plasma membrane isolated, bound ligand by Western blot
PTH1R-YFP2 = PTH1R-YFP2 (UniProt Q03431); experiment: YFP protein-fragment complementation assay with PTH1R-YFP2 in living cells
PTH1R-YFP2, sequence (Q03431 27-593): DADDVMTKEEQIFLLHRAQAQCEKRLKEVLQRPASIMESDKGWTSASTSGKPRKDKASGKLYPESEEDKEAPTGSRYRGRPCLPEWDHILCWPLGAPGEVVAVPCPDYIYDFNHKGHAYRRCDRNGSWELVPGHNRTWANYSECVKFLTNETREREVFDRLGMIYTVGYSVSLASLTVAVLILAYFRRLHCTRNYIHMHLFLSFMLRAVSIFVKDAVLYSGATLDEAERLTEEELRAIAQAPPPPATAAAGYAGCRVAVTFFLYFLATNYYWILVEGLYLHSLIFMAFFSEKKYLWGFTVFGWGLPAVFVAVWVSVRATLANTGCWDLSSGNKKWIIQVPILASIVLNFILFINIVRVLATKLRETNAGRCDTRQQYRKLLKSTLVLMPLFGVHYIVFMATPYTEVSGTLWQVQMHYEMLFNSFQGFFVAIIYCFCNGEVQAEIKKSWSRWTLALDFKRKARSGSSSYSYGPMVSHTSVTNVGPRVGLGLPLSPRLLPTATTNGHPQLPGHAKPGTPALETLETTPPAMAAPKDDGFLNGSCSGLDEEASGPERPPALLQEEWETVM

PTH1R tagged with HA (human), sequence (Q03431 27-593): as above

reduction of binding of PTH ligands versus vector control (cells overexpressing WT TβRII) [1]	YFP fluorescence intensity relative to WT TβRII (fold of WT TβRII-YFP1) (PTH1R-YFP2)	Substance
50%		PTH ligand (form not stated, Example 12) (from UniProt P01270 32-65)
	0.167	kinase dead TβRII (K277A)-YFP1 (from UniProt P37173 23-567) (receptor)
